According to US20160194394A1 (GOVERNING COUNCIL OF THE UNIVERSITY OF TORONTO, published 2016):
Where a chain is given by its changes, count along the chain named.

B1: B11 (Fab)
light: DIQMTQSPSSLSASVGDRVTITCRASQSVSSAVAWYQQKPGKAPKLLIYSASSLYSGVPSRFSGSRSGTDFTLTISSLQPEDFATYYCQQYFYSSYSPITFGQGTKVEIKRTVAAPSVFIFPPSDSQLKSGTASVVCLLNNFYPREAKVQWKVDNALQSGNSQESVTEQDSKDSTYSLSSTLTLSKADYEKHKVYACEVTHQGLSSPVTKSFNRGECGGS
heavy: EVQLVESGGGLVQPGGSLRLSCAASGFNISYSYMHWVRQAPGKGLEWVAYIYPSYSSTSYADSVKGRFTISADTSKNTAYLQMNSLRAEDTAVYYCARASYWALDYWGQGTLVTVSSASTKGPSVFPLAPSSKSTSGGTAALGCLVKDYFPEPVTVSWNSGALTSGVHTFPAVLQSSGLYSLSSVVTVPSSSLGTQTYICNVNHKPSNTKVDKKVEPKSC
notes: selection round 2; also called Fzd7-R2-B11
B2: A7 (Fab)
light: DIQMTQSPSSLSASVGDRVTITCRASQSVSSAVAWYQQKPGKAPKLLIYSASSLYSGVPSRFSGSRSGTDFTLTISSLQPEDFATYYCQQYHYGYYPFTFGQGTKVEIKRTVAAPSVFIFPPSDSQLKSGTASVVCLLNNFYPREAKVQWKVDNALQSGNSQESVTEQDSKDSTYSLSSTLTLSKADYEKHKVYACEVTHQGLSSPVTKSFNRGECGGS
heavy: B1 heavy with I29L, Y31S, M34I, P53S, S56G, S59Y, Y101W, L104I
notes: selection round 2; also called Fzd7-R2-A7
B3: H8 (Fab)
light: B1 light with Y91S, S94W, S95G, S97P, I99F
heavy: EVQLVESGGGLVQPGGSLRLSCAASGFNIYSSSIHWVRQAPGKGLEWVASIYSYYGYTYYADSVKGRFTISADTSKNTAYLQMNSLRAEDTAVYYCARWYAFDYWGQGTLVTVSSASTKGPSVFPLAPSSKSTSGGTAALGCLVKDYFPEPVTVSWNSGALTSGVHTFPAVLQSSGLYSLSSVVTVPSSSLGTQTYICNVNHKPSNTKVDKKVEPKSC
notes: selection round 2; also called Fzd7-R2-H8
B4: B2 (Fab)
light: DIQMTQSPSSLSASVGDRVTITCRASQSVSSAVAWYQQKPGKAPKLLIYSASSLYSGVPSRFSGSRSGTDFTLTISSLQPEDFATYYCQQAYAYLITFGQGTKVEIKRTVAAPSVFIFPPSDSQLKSGTASVVCLLNNFYPREAKVQWKVDNALQSGNSQESVTEQDSKDSTYSLSSTLTLSKADYEKHKVYACEVTHQGLSSPVTKSFNRGECGGS
heavy: EVQLVESGGGLVQPGGSLRLSCAASGFNISYSSMHWVRQAPGKGLEWVASISSSYGYTYYADSVKGRFTISADTSKNTAYLQMNSLRAEDTAVYYCARSGGHFYYWYVAAAMDYWGQGTLVTVSSASTKGPSVFPLAPSSKSTSGGTAALGCLVKDYFPEPVTVSWNSGALTSGVHTFPAVLQSSGLYSLSSVVTVPSSSLGTQTYICNVNHKPSNTKVDKKVEPKSC
notes: selection round 2; not the round 3 clone B2 (f33); also called Fzd7-R2-B2
B5: C12 (Fab)
light: B4 light with A91S, Y92S, A93Y, Y94S
heavy: EVQLVESGGGLVQPGGSLRLSCAASGFNLSYSYMHWVRQAPGKGLEWVASIYSSYGYTSYADSVKGRFTISADTSKNTAYLQMNSLRAEDTAVYYCARYYGWAYYYSYFPAWAGGGIDYWGQGTLVTVSSASTKGPSVFPLAPSSKSTSGGTAALGCLVKDYFPEPVTVSWNSGALTSGVHTFPAVLQSSGLYSLSSVVTVPSSSLGTQTYICNVNHKPSNTKVDKKVEPKSC
notes: selection round 2; same four CDRs as Fzd7-R3-B2 (f33); also called Fzd7-R2-C12
B6: C1 (Fab)
light: B4 light with A91Y, Y92G, A93H
heavy: EVQLVESGGGLVQPGGSLRLSCAASGFNLYSYSMHWVRQAPGKGLEWVASISSYYGSTYYADSVKGRFTISADTSKNTAYLQMNSLRAEDTAVYYCARAHGSSPGWYYAPYAGGGLDYWGQGTLVTVSSASTKGPSVFPLAPSSKSTSGGTAALGCLVKDYFPEPVTVSWNSGALTSGVHTFPAVLQSSGLYSLSSVVTVPSSSLGTQTYICNVNHKPSNTKVDKKVEPKSC
notes: selection round 2; also called Fzd7-R2-C1
B7: B7 (Fab)
light: B4 light with A93Y, Y94P, I96F
heavy: EVQLVESGGGLVQPGGSLRLSCAASGFNISYSSMHWVRQAPGKGLEWVASIYPSYGYTSYADSVKGRFTISADTSKNTAYLQMNSLRAEDTAVYYCARVYWSSSYWAGGYWVGSAFDYWGQGTLVTVSSASTKGPSVFPLAPSSKSTSGGTAALGCLVKDYFPEPVTVSWNSGALTSGVHTFPAVLQSSGLYSLSSVVTVPSSSLGTQTYICNVNHKPSNTKVDKKVEPKSC
notes: selection round 3; also called Fzd7-R3-B7
B8: G12 (Fab)
light: DIQMTQSPSSLSASVGDRVTITCRASQSVSSAVAWYQQKPGKAPKLLIYSASSLYSGVPSRFSGSRSGTDFTLTISSLQPEDFATYYCQQWGYGALITFGQGTKVEIKRTVAAPSVFIFPPSDSQLKSGTASVVCLLNNFYPREAKVQWKVDNALQSGNSQESVTEQDSKDSTYSLSSTLTLSKADYEKHKVYACEVTHQGLSSPVTKSFNRGECGGS
heavy: EVQLVESGGGLVQPGGSLRLSCAASGFNISYSSIHWVRQAPGKGLEWVASIYPSPGYTSYADSVKGRFTISADTSKNTAYLQMNSLRAEDTAVYYCARHGWYGLDYWGQGTLVTVSSASTKGPSVFPLAPSSKSTSGGTAALGCLVKDYFPEPVTVSWNSGALTSGVHTFPAVLQSSGLYSLSSVVTVPSSSLGTQTYICNVNHKPSNTKVDKKVEPKSC
notes: selection round 2; also called Fzd7-R2-G12

molecular target: T1, FZD7 receptor expressed on cells (full-length) (UniProt O75084 33-574, limits assumed); assay: flow cytometry, 200 nM Fab, MDA MB 231 [cont'd]
T1 construct: whole, on cells; MDA MB 231 cells may carry other Frizzled receptors too; also called full-length FZD7 receptor; endogenous receptor on MDA MB 231 cells
Description: (§1) FIG. 3 is a table depicting the binding of the purified Fabs to cells expressing FZD7 (flow cytometry). Small scale Fabs were assayed for binding to full-length FZD7 receptor to an over-expression line in MDA MB 231 cells. In parallel, Fabs were assayed for binding to endogenous receptor expressed on the MDA MB 231 cells. Cells were harvested using an EDTA solution, blocked in 2% FBS/PBS (stain buffer), and stained with 200 nM Fab for 30 min on ice. Cells were washed two times with stain buffer and incubated with anti-F(ab′)₂-APC secondary antibody (Jackson Immuno) at 1:1000 for 15 minutes on ice. All antibodies were diluted in stain buffer. Cells were washed three times with stain buffer and then fixed with 1% paraformaldehye for analysis by flow cytometry. […] The percent of the cell population within the positive gates is indicated.

| % population within the positive gate [%] | Binder |
| --- | --- |
| 97.2 | B1 |
| 96.3 | B2 |
| 1.1 | B3 |
| 7.1 | B4 |
| 11.9 | B5 |
| 66.5 | B6 |
| 0.7 | B7 |

molecular target: T2, recombinant Frizzled receptor 7 (FZD7) cysteine-rich domain (CRD) fused to the Fc region of human IgG (human, UniProt O75084 33-185); assay: ELISA, 1ug/ml (20nM) Fab
Description: (§2) FIG. 2B is a table depicting the binding of purified Fabs to purified FZD7-Fc measured by ELISA. Fabs purified from 25 ml bacterial cultures were assayed for binding to FZD7-Fc fusion protein (R&D systems) and Fc protein. ELISA plates (384 well) were coated with 2 ug/ml of protein in PBS overnight at four degrees. Wells were blocked with 0.5% BSA/PBS for 1 hour at room temperature, washed three times with 0.05% Tween20/PBS (wash buffer), and then primary dilutions of Fabs in 0.5% BSA/0.05% Tween20/PBS (dilution buffer) were added at indicated concentrations. Fabs were incubated for 1 hour at room temperature, wells were washed six times, and anti-FLAG-HRP (Sigma) was added at 1:5000 in dilution buffer. Secondary antibody was incubated for 45 minutes at room temperature, and wells were washed six times and developed with TMB substrate with an acid stop. The absorbance at 450 nm was read. n.t.=not tested.

| OD 450 | Binder |
| --- | --- |
| 3.13 | B8 |

molecular target: T3, Fc control protein; assay: ELISA, 1ug/ml (20nM) Fab
T3 construct: also called Fc protein; control Fc protein
Description: as §2

| OD 450 | Binder |
| --- | --- |
| 0.06 | B8 |

molecular target: T2, recombinant Frizzled receptor 7 (FZD7) …; assay: ELISA, 10ug/ml (200nM) Fab [cont'd]
Description: as §2

| OD 450 | Binder |
| --- | --- |
| 3.2 | B1 |
| 3.22 | B2 |
| 2.7 | B3 |
| 3.18 | B4 |
| 3.15 | B5 |
| 3.19 | B6 |
| 3.06 | B7 |

molecular target: T3, Fc control protein; assay: ELISA, 10ug/ml (200nM) Fab [cont'd]
Description: as §2

| OD 450 | Binder |
| --- | --- |
| 0.08 | B1 |
| 0.07 | B2 |
| 0.08 | B3 |
| 0.13 | B4 |
| 0.07 | B5 |
| 0.14 | B6 |
| 0.07 | B7 |

molecular target: T1, FZD7 receptor expressed on cells …; assay: flow cytometry, 200 nM Fab, MDA MB 231
Description: as §1

| % population within the positive gate [%] | Binder |
| --- | --- |
| 33.3 | B8 |

molecular target: T1, FZD7 receptor expressed on cells …; assay: flow cytometry, 200 nM Fab, FZD7 over-expression line (MDA MB 231)
Description: as §1

| % population within the positive gate [%] | Binder |
| --- | --- |
| 83.8 | B8 |

molecular target: T1, FZD7 receptor expressed on cells …; assay: flow cytometry, 200 nM Fab, FZD7 over-expression line (MDA MB 231) [cont'd]
Description: as §1

| % population within the positive gate [%] | Binder |
| --- | --- |
| 91.2 | B1 |
| 92.7 | B2 |
| 79.6 | B3 |
| 86.8 | B4 |
| 86.9 | B5 |
| 87.3 | B6 |
| 80.1 | B7 |

molecular target: T2, recombinant Frizzled receptor 7 (FZD7) …; assay: ELISA, 1ug/ml (20nM) Fab [cont'd]
Description: as §2

| OD 450 | Binder |
| --- | --- |
| 3.15 | B1 |
| 3.19 | B2 |
| 0.78 | B3 |
| 3.19 | B4 |
| 2.87 | B5 |
| 3.15 | B6 |
| 2.12 | B7 |

molecular target: T3, Fc control protein; assay: ELISA, 1ug/ml (20nM) Fab [cont'd]
Description: as §2

| OD 450 | Binder |
| --- | --- |
| 0.05 | B1 |
| 0.07 | B2 |
| 0.06 | B3 |
| 0.06 | B4 |
| 0.05 | B5 |
| 0.06 | B6 |
| 0.06 | B7 |

molecular target: T2, recombinant Frizzled receptor 7 (FZD7) …; assay: ELISA, 10ug/ml (200nM) Fab
Description: as §2

| OD 450 | Binder |
| --- | --- |
| 3.19 | B8 |

molecular target: T3, Fc control protein; assay: ELISA, 10ug/ml (200nM) Fab
Description: as §2

| OD 450 | Binder |
| --- | --- |
| 0.14 | B8 |
